Experimental data published in the Human Domainome abundance scans (Beltran et al. 2025).
± gives the uncertainty stated by the source.

B1: Storkhead-box protein 2, residues 64 to 141; numbered along this chain, Q9P2F5 (parent)
chain: SPISQSQFIPLGEILCLAISAMNSARKPVTQEALMEHLTTCFPGVPTPSQEILRHTLNTLVRERKIYPTPDGYFIVTP

Variants of: B1
Experiment: abundance fitness (aPCA) (normalised: wild type 0, dead -1); higher = more abundant; growth selection in yeast, the domain comes from the species named
Details: Homo sapiens

Variant | abundance fitness
M35R | -0.103 ± 0.054
M35P | -0.361 ± 0.075
M35N | -0.249 ± 0.34
T39K | -0.15 ± 0.13
T39S | -0.043 ± 0.044
T39I | 0.04 ± 0.11
I66D | -1.02 ± 0.27
I66F | -0.937 ± 0.13
G44S | 0.016 ± 0.042
G44F | -0.156 ± 0.069
R64M | -0.138 ± 0.079
R64F | -0.286 ± 0.082
R64I | -0.619 ± 0.14
L17D | -0.069 ± 0.081
L17N | 0.079 ± 0.087
L17I | 0.133 ± 0.2
Y67C | 0.039 ± 0.053
Y67R | 0.022 ± 0.035
Y67W | -0.049 ± 0.049
I75Y | -0.013 ± 0.054
I75V | 0.024 ± 0.051
I75C | 0.017 ± 0.082
I75S | 0.038 ± 0.049
K27L | -0.12 ± 0.034

Variant | abundance fitness
H55F | -0.057 ± 0.08
H55K | 0.007 ± 0.07
H55A | 0.007 ± 0.045
A21H | -0.181 ± 0.17
A21P | -0.774 ± 0.072
A21C | -0.137 ± 0.07
A21I | -0.24 ± 0.18
A21R | -0.019 ± 0.051
S49M | -0.68 ± 0.1
S49I | -0.835 ± 0.12
S49V | -0.575 ± 0.043
S49P | -0.27 ± 0.045
S49T | -0.16 ± 0.055
S49K | -0.139 ± 0.055
T59D | -0.016 ± 0.063
T59L | 0.067 ± 0.034
T59F | 0.018 ± 0.064
T59I | 0.029 ± 0.074
K65N | -0.493 ± 0.31
K65E | -0.167 ± 0.079
K65L | -0.06 ± 0.039
K65S | -0.082 ± 0.058
P70C | -0.051 ± 0.071
P70F | -0.081 ± 0.07

Variant | abundance fitness
P70R | 0.05 ± 0.037
P70Q | 0.034 ± 0.065
R26I | -0.199 ± 0.066
R26A | -0.021 ± 0.048
R26S | -0.04 ± 0.05
R26V | -0.09 ± 0.042
R26C | -0.115 ± 0.089
R26L | -0.078 ± 0.044
R26N | 0.023 ± 0.14
L57Q | -0.924 ± 0.26
L57W | -0.269 ± 0.076
L57F | -0.306 ± 0.18
G72I | -0.613 ± 0.17
G72R | -0.32 ± 0.032
G72L | -0.461 ± 0.048
G72Y | -0.527 ± 0.23
P28S | -0.087 ± 0.047
P28L | -0.2 ± 0.043
P48N | -0.5 ± 0.099
T56L | 0.054 ± 0.043
T56C | -0.056 ± 0.074
T56S | -0.005 ± 0.045
T56V | -0.042 ± 0.044
L15K | -0.572 ± 0.15

Variant | abundance fitness
L15N | -0.613 ± 0.32
N58A | 0.033 ± 0.04
N58E | 0.001 ± 0.065
N58L | -0.025 ± 0.041
N58T | -0.018 ± 0.056
L53G | -0.856 ± 0.068
L53Q | -0.491 ± 0.11
L53M | 0.019 ± 0.047
L53K | -0.943 ± 0.28
L60W | -0.525 ± 0.067
L60Q | -0.342 ± 0.049
S4Y | -0.076 ± 0.071
S4T | -0.006 ± 0.046
S4R | -0.155 ± 0.043
S4H | 0.008 ± 0.11
C41H | -0.096 ± 0.15
C41F | 0.01 ± 0.082
I14V | -0.031 ± 0.068
I14P | -0.032 ± 0.085
I14K | -0.039 ± 0.2
I14Q | -0.118 ± 0.13
I14N | -0.384 ± 0.16
I14Y | -0.108 ± 0.14
Q7F | -0.065 ± 0.067

Variant | abundance fitness
Q7S | 0.036 ± 0.049
Q7K | -0.051 ± 0.086
Y73P | -0.149 ± 0.055
Y73V | -0.171 ± 0.063
Y73D | -0.136 ± 0.14
Q5L | -0.079 ± 0.043
Q5E | -0.015 ± 0.088
Q5A | 0.037 ± 0.041
Q5I | -0.052 ± 0.078
F42V | -0.045 ± 0.11
F42E | 0.108 ± 0.13
V29F | -0.213 ± 0.057
V29W | -0.363 ± 0.055
V29L | -0.408 ± 0.041
G12D | -0.127 ± 0.33
S24W | -0.226 ± 0.045
S24H | -0.141 ± 0.095
S24Q | 0.026 ± 0.076
S24K | 0.037 ± 0.073
S24D | -0.018 ± 0.14
C16D | -0.353 ± 0.084
C16S | -0.091 ± 0.06
C16T | -0.027 ± 0.097
C16V | -0.074 ± 0.051

Variant | abundance fitness
C16N | -0.08 ± 0.13
C16M | -0.04 ± 0.088
A25M | -0.048 ± 0.11
A25E | -0.049 ± 0.1
N23Y | -0.357 ± 0.087
T77Y | -0.084 ± 0.071
T77S | 0.024 ± 0.07
T77A | -0.019 ± 0.057
T77E | 0.034 ± 0.088
P78S | -0.038 ± 0.064
P78A | -0.05 ± 0.064
P78M | -0.289 ± 0.12
P78F | -0.37 ± 0.2
R62Y | 0.076 ± 0.21
Q50T | -0.08 ± 0.086
Q50R | -0.036 ± 0.043
Q50K | -0.014 ± 0.097
Q50P | -0.055 ± 0.081
V76A | 0.001 ± 0.041
V76C | 0.03 ± 0.069
V76E | 0.037 ± 0.064
V76P | 0.001 ± 0.051
E13S | -0.039 ± 0.057
E13M | -0.206 ± 0.1

Variant | abundance fitness
I3S | 0.004 ± 0.038
I3V | 0.001 ± 0.034
I3C | -0.16 ± 0.057
I3E | 0.041 ± 0.06
V45S | -0.113 ± 0.043
V45E | -0.155 ± 0.067
V45C | -0.003 ± 0.05
V45K | -0.222 ± 0.091
V45L | -0.05 ± 0.031
V45N | -0.209 ± 0.13
P46I | 0.015 ± 0.085
P46M | -0.107 ± 0.058
P46R | -0.157 ± 0.034
P46Y | -0.402 ± 0.17
R54S | 0.015 ± 0.06
R54C | -0.193 ± 0.17
P68M | -0.038 ± 0.056
P68H | 0.051 ± 0.093
P68F | -0.014 ± 0.076
I9V | 0.011 ± 0.036
I9L | 0.03 ± 0.041
I9H | -0.243 ± 0.48
I9Q | 0.101 ± 0.14
